Reference: paper PMC12009342

Legend:
[1] = target: HIV-1 Env antigen (BG505 SOSIP.664 gp140-his) (HIV-1 (BG505)) (UniProt Q2N0S6); test: BLI; BLItz; His-tagged antigen captured on Anti-Penta-HIS (HIS1K) biosensor at 25 ng/µL for 300 s; Fab in solution at 4 concentrations; association 180 s, dissociation 300 s in PBS
[2] = target: HIV-1 Env antigen (BG505 SOSIP.664 gp140-his) (HIV-1 (BG505)) (UniProt Q2N0S6); test: SEC-MALS; Fab/antigen mixtures; Fab and HIV Env trimer mixed 3:1, Fab and EGFR or Nkp30 mixed 1:1; Superdex 200 Increase 10/300 GL, PBS with 200 ppm sodium azide, 1 mL/min

NC-Cow1 Fab ulCDR-swap variant var1 (ulCDR of NC-Cow2)
Kd [1]: 125 nM
stoichiometry N [2]: 1
